The values that follow come from the supplement of paper PMC11780869.

This data set relates to Bacillus subtilis. In words: cleaved RNA product abundance (RNA/gDNA barcode ratio) relative to median wild-type variant (ratio to wild type); higher = more accumulation of the downstream cleavage product. In outline: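 Oligos with a 9% error rate were used to build barcoded, mutagenized RNase Y cleavage-site windows within truncated aprE or tetM reporter mRNAs, which were integrated into the B. subtilis chromosome. Cultures were grown in LB at 37°C between OD600 0.0003 and 0.3. Cleaved RNA was gel-selected, reverse transcribed and barcode-sequenced, as were genomic DNA barcodes, and UMIs were collapsed. Cleaved product abundance is the scaled RNA:gDNA barcode ratio, with the median construct carrying the unmutated site as reference.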

Where [1] appears, read: experiment (reporter, strain, medium): exp 2b: truncated aprE reporter, strain BJT200, cleavage site: cggR-gapA (positions -7 to +36 mutated).
Where [2] appears, read: experiment (reporter, strain, medium): exp 4a: truncated aprE reporter, strain BJT201 with 2% xylose (RNase J1 expressed), cleavage site: cggR-gapA (positions -7 to +36 mutated).
[3] abbreviates: experiment (reporter, strain, medium): exp 8a: truncated aprE reporter, strain BJT201 with 2% xylose (RNase J1 expressed), cleavage site: glnRA (positions -5 to +31 mutated).
[4] abbreviates: experiment (reporter, strain, medium): exp 6: tetM reporter, strain 168, cleavage site: cggR-gapA (positions -7 to +36 mutated).

Take “ACAGACGAAGGAGCCGCAAACAAGTTATTAAGGGATGAATAATCTCTCAATATAAATATCTCTCACTTATTTAAA”: the “cleaved RNA product abundance” value runs as follows: under setting [1], 0.529; under setting [2], 0.573. Turning to “ACAGACGAAGGAGCCGCAAAGAAGTAATTAAGGTATGAATAATCCCTCAATATAAATATCTCTCACTTATTTAAA”, the “cleaved RNA product abundance” value runs as follows: under setting [1], 0.0974; under setting [2], 0.112.

Take “ACAGACGAAGGAGCCGCAAAGAAGTTATTAAGGGATAAATAATCCCTCAAAATAAATATCTCTCACTTATTTAAA”: the “cleaved RNA product abundance” value came out at 0.293 under setting [1] and 0.241 under setting [2]. As to “ACAGACGAAGGAGCCGCAAAGAAGTTATTAAGCGATGAATAATCCCTCAATATAAATACCTCTCACTTATTTAAA”, the “cleaved RNA product abundance” value under setting [2] is 0.118. For “CGACATGTCCCGCTTCTTTCATTATTCCGTTACCAAATGTTTTGCTATATACATTTACCTTTTAAGAGGAGGAAT”, the “cleaved RNA product abundance” value under setting [3] amounted to 0.265. With “CGACATGTCCCGCTTCTTTCATTAATCCGTTAGCAACTGTTTCGCTATATACATGTACCTTTTAAGAGGAGGAAT”, the “cleaved RNA product abundance” value under setting [3] is 0.361. As to “ACAGACGAAGGAGCCGCAAAGAAGTTATTAAGGAATGAATAATCCCTCAATATAAAGATCTCTCACTTATTTAAA”, the “cleaved RNA product abundance” value under setting [2] was 0.0766. For “CGACATGTCCCGCTTCTTTCATTAATCCGTTAGCAACTGTTTTGTTATATACATTTATCTTTTAAGAGGAGGAAT”, the “cleaved RNA product abundance” value under setting [3] is 0.458. Same read-out and setting: the result for “CGACATGTCCCGCTTCTTTCATTAATCCGTTAGCAACGGTTGTGCTATATACATTTACCTTTTAAGAGGAGGAAT” reads 0.353. Same read-out and setting: the result for “CGACATGTCCCGCTTCTTTCATTAATCCGTTAGCAACTGTTTTGCTATTTACATCTACCTTTTAAGAGGAGGAAT” reads 0.276.

On to “ACAGACGAAGGAGCCTCAAAGAAGTTATTAAGTGATGAATAATCCCTCAATATAAATATCTCTCACTTATTTAAA”, for which the “cleaved RNA product abundance” value under setting [4] was 0.135. Consider “ACAGACGAAGGAGCCGCAAAGAAGTTATTAAGGGCTGAATAATCCCTCAATATAAATATCTCTCACTTATTTAAA”, for which the “cleaved RNA product abundance” value runs as follows: under setting [1], 0.587; under setting [2], 0.593; under setting [4], 0.473. As to “CGACATGTCCCGCTTCTTTCATTAATCAGTTAGCAACTGTTTTGCTATATACATTTACATTTTAAGAGGAGGAAT”, the “cleaved RNA product abundance” value under setting [3] is 0.595.

With “ACAGACGAAGGAGCCGCAAAGAAGTTAGTAAGGGATGAATAATACCTCAATATAAATATCTCTCACTTATTTAAA”, under setting [2], the “cleaved RNA product abundance” value amounted to 0.151. Regarding “ACAGACGAAGGAGCCGCAAAGAAGTTATTAAAGGTTGAATAATCCCTCAATATAAATATCTCTCACTTATTTAAA”, the “cleaved RNA product abundance” value under setting [2] came to 0.0853. As to “CGACATGTCCCGCTTCTTTCATTAATCCGTTAACTACTGTTTTGCTATATACATTTACCTTTTAAGAGGAGGAAT”, the “cleaved RNA product abundance” value under setting [3] was 0.265. As to “ACAGACGAAGGAGCCGCAAAGAAGTTATTTAGGTATGAATAATCCCTCAATATAAATATCTCTCACTTATTTAAA”, the “cleaved RNA product abundance” value is 0.121 under setting [1] and 0.165 under setting [2]. With “CGACATGTCCCGCTTCTTTCATTAATCCATTAGCAACTGTTTTGCAATATACATTTACCTTTTAAGAGGAGGAAT”, the “cleaved RNA product abundance” value under setting [3] stood at 0.408. For “ACAGACGAAGGAGCCGCAAAGAATTTATTAAGGGATGCATAATCCCTCAATATAAATATCTCTCACTTATTTAAA”, the “cleaved RNA product abundance” value is 0.535 under setting [1] and 0.597 under setting [2]. “CGACATGTCCCGCTTCTTTCATTAAACCGTTAGCAACTGTTTTGCTATATAAATTTACCTTTTAAGAGGAGGAAT”: the “cleaved RNA product abundance” value under setting [3] came out at 1.02.

For the sequence “ACAGACGAAGGAGCCGCAAAGAAGTTATTAAGGGAAGAATAATACCTCAATATAAATATCTCTCACTTATTTAAA”, the “cleaved RNA product abundance” value under setting [1] amounted to 0.101 and the “cleaved RNA product abundance” value under setting [2] stood at 0.156.

For the sequence “CGACATGTCCCGCTTCTTTCATTAATCCGTTAGCAACTGATTTGCTATATACATTAACCTTTTAAGAGGAGGAAT”, the “cleaved RNA product abundance” value under setting [3] turned out to be 1.33.

With “ACAGACGAAGGAGCCGCAAAGAAGTTATTAAGGGATGAGTAAACCCTCAATATAAATATCTCTCACTTATTTAAA”, the “cleaved RNA product abundance” value under setting [2] turned out to be 0.35. Take “ACAGACGAAGGAGCCGCAAAGAAGTTATGAAGGAATGAATAATCCCTCAATATAAATATCTCTCACTTATTTAAA”: the “cleaved RNA product abundance” value by setting is: under setting [1], 0.139; under setting [2], 0.0818. Consider “ACAGACGAAGGAGCCGCAAATAAGTTATTAAGGGATGAATAATCCCTCAATATAATTATCTCTCACTTATTTAAA”, for which the “cleaved RNA product abundance” value turned out to be 0.515 under setting [1] and 0.477 under setting [2]. As to “ACAGACGAAGGAGCTGCAAAGAAGTTATTAAGGAATGAATAATCCCTCAATATAAATATCTCTCACTTATTTAAA”, the “cleaved RNA product abundance” value under setting [4] was 0.134. For “ACAGACGAAGGAGCCGCAAAGAAGTTATTAAGGAATGAATAATCCCTCATTATAAATATCTCTCACTTATTTAAA”, the “cleaved RNA product abundance” value by setting is: under setting [1], 0.102; under setting [2], 0.0579.

For “ACAGACGAAGGAGCCGCAAAGAAGTTATTAAGGAATGAATAATCCCTCAATATAAATTTCTCTCACTTATTTAAA”, the “cleaved RNA product abundance” value reads like this: under setting [1], 0.114; under setting [2], 0.142. The matching figures for “ACAGACGAAGGAGCCGCAAAGAAGTTACTAAGGAATGAATAATCCCTCAATATAAATATCTCTCACTTATTTAAA”: 0.0952 and 0.143. Regarding “ACAGACGAAGGAGCCGCAAAGAAGTTAATAAGGGATGAATAATACCTCAATATAAATATCTCTCACTTATTTAAA”, the “cleaved RNA product abundance” value runs as follows: under setting [1], 0.0994; under setting [2], 0.144. On to “ACAGACGAAGGAGCCGCAATGAAGTAATTAAGGGATGAATAATCCCTCAATATAAATATCTCTCACTTATTTAAA”, for which, under setting [2], the “cleaved RNA product abundance” value came to 0.364.

Take “ACAGACGAAGGAGCCGCAAAGAAGTTATTAAGAGATGAATAATCCCTCAACATAAATATCTCTCACTTATTTAAA”: the “cleaved RNA product abundance” value under setting [1] was 0.111 and the “cleaved RNA product abundance” value under setting [2] turned out to be 0.132.

Regarding “ACAGACGAAGGAGCCGCAAAGAAGTTATTAAAGGATGAATAATCCCTCAATTTAAATATCTCTCACTTATTTAAA”, the “cleaved RNA product abundance” value is, setting by setting: under setting [1], 0.088; under setting [2], 0.0949. For “CGACATGTCCCGCTTCTTTCATTAATCCGTTAGCAACTGTTTTGCTATATTACATTTACCTTTTAAGAGGAGGAA”, under setting [3], the “cleaved RNA product abundance” value amounted to 0.443. Consider “ACAGACGAAGGAGCCGCAAAGAAGTTATTAAGGGATGAATAATCCCTCAATACAAATACCTCTCACTTATTTAAA”, for which the “cleaved RNA product abundance” value under setting [2] was determined as 0.0316. Consider “ACAGACGAAGGAGCCGCAAAGAAGTTATTAATGGATGAATAATCCCTCAAAATAAATATCTCTCACTTATTTAAA”, for which the “cleaved RNA product abundance” value by setting is: under setting [1], 0.11; under setting [2], 0.151. On to “CGACATGTCCCGCTTCTTTCATTAATCCGTTAGCAACTGTTTTGCTAGATACATTTACTTTTTAAGAGGAGGAAT”, for which the “cleaved RNA product abundance” value under setting [3] is 0.636. In the case of “ACAGACGAAGGAGCCGCAAAGAAGTTATTACGGGATGAATAATCCCTCAATATAAATATCTCTCACTTATTTAAA”, the “cleaved RNA product abundance” value reads like this: under setting [1], 0.32; under setting [2], 0.46; under setting [4], 0.453. As for “ACAGACGAAGGAGCCGCAAAGAAGTTATTAAGGCATGAATAATCCCTCAGTATAAATATCTCTCACTTATTTAAA”, the “cleaved RNA product abundance” value under setting [2] came out at 0.0715.

For “CGACATGTCCCGCTTCTTTCATTAATCCGTTACCAACTGTTTTCCTATATACATTTACCTTTTAAGAGGAGGAAT”, the “cleaved RNA product abundance” value under setting [3] came out at 0.203. For “ACAGACGAAGGAGCCGCAAGGTAGTTATTAAGGGATGAATAATCCCTCAATATAAATATCTCTCACTTATTTAAA”, the “cleaved RNA product abundance” value under setting [2] worked out at 1. Turning to “ACAGACGAAGGAGCCGCGAAGAAGTTATTAAGGTATGAATAATCCCTCAATATAAATATCTCTCACTTATTTAAA”, the “cleaved RNA product abundance” value by setting is: under setting [1], 0.117; under setting [2], 0.143.

As for “CGACATGTCCCGCTTCTTTCATTAATCCGTTAGCAACTGTTTTGCTACATACACTTACCTTTTAAGAGGAGGAAT”, the “cleaved RNA product abundance” value under setting [3] was found to be 0.213. Consider “ACAGACGAAGGAGCCGCAAAGAATTAATTAAGGGATGAATAATCCCTCAATATAAATATCTCTCACTTATTTAAA”, for which the “cleaved RNA product abundance” value stood at 0.257 under setting [1] and 0.36 under setting [2]. As to “ACAGACGAAGGAGCCGCAAAGAAGTTATTAAGGGATCAATAACCCCTCAATATAAATATCTCTCACTTATTTAAA”, the “cleaved RNA product abundance” value under setting [2] worked out at 0.561. Turning to “CGACATGTCCCGCTTCTTTCATTACTCCGTTAGCAACTGTTTTGCTATATACACTTACCTTTTAAGAGGAGGAAT”, the “cleaved RNA product abundance” value under setting [3] is 0.587.

Take “ACAGACGAAGGAGCCGCAAAGAAGTTATTAAGGGAAGAATACTCCCTCAATATAAATATCTCTCACTTATTTAAA”: the “cleaved RNA product abundance” value was determined as 0.632 under setting [1] and 1.01 under setting [2].

“CGACATGTCCCGCTTCTTTCATTAAACCGTTACCAACTGTTTTGCTATATACATTTACCTTTTAAGAGGAGGAAT”: the “cleaved RNA product abundance” value under setting [3] was 0.189.

Regarding “CGACATGTCCCGCTTCTTTCATTAATCTGTTAGCAACTGTTTTGATATATACATTTACCTTTTAAGAGGAGGAAT”, the “cleaved RNA product abundance” value under setting [3] was 0.562. Turning to “ACAGACGAAGGAGCCGCAAAGAAGTTATTAAGGGATGAATTATCCCTCAATATAAATACCTCTCACTTATTTAAA”, the “cleaved RNA product abundance” value under setting [1] came out at 0.469.

For the sequence “ACAGACGAAGGAGCCGCGAAGAAGTTATGAAGGGATGAATAATCCCTCAATATAAATATCTCTCACTTATTTAAA”, the “cleaved RNA product abundance” value under setting [2] turned out to be 0.248. On the same count and under the same terms, the result for “ACAGACGAAGGAGCCGCAAAGAAGTTATTAAGGAATGAATAATCCCGCAATATAAATATCTCTCACTTATTTAAA” reads 0.0576.
